Read-outs that look alike come from different tables or passages of the source.
B1: human granulocyte-colony stimulating factor (G-CSF) (ligand)
chain: TPLGPASSLPQSFLLKCLEQVRKIQGDGAALQEKLCATYKLCHPEELVLLGHSLGIPWAPLSSCPSQALQLAGCLSQLHSGLFLYQGLLQALEGISPELGPTLDTLQLDVADFATTIWQQMEELGMAPALQPTQGAMPAFASAFQRRAGGVLVASHLQSFLEVSYRVLRHLAQP
notes: also called G-CSF standards

How the values were obtained:
Assay in all cases: SPR (Biacore 3000), G-CSFR amine-coupled to CM5 chip, 1:1 Langmuir fit
[1] = biological target: G-CSF receptor G-CSFR (R & D company, Item No. 381GR/CF) (UniProt Q99062)
[2] = biological target: T1, G-CSF receptor G-CSFR (R & D company, Item No. 381GR/CF) (UniProt Q99062 25-621, limits assumed)
T1 construct: Bought reagent, amine-coupled to a CM5 chip; also called the receptor
T1 sequence (looked up): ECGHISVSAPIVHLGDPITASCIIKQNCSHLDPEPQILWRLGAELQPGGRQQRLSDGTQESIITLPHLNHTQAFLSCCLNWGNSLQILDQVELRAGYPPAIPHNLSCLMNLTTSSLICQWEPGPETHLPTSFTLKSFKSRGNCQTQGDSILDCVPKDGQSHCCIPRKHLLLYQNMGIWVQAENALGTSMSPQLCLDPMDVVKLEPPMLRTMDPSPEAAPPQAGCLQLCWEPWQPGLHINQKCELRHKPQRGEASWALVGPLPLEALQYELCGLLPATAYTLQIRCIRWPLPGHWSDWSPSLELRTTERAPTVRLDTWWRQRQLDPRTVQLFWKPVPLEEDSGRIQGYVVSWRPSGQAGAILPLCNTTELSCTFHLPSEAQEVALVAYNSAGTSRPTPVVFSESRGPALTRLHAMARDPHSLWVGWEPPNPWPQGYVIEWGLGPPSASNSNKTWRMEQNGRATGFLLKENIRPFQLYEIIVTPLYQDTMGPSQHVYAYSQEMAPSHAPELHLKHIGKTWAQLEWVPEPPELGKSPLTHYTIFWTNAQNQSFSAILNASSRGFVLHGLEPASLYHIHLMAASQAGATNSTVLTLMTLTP
Description: (§1) The receptor G-CSFR (R & D company, Item No. 381GR/CF) was coupled to FC₄ cell of a CM5 chip by using an amine coupling method in Biacore® 3000 control software Wizard. HBS-P buffer (10 mM HEPES, 150 mM NaCl, and 0.005% (v/v) surfactant P20, pH 7.4) was used as the working buffer, and 1 mg/mL of G-CSFR was diluted with 10 mM NaAC (pH 4.5) to a final concentration of 20 μg/mL. A 1:1 mixture of 0.2 M EDC and 50 mM NHS was injected by flowing through the surface of the chip at a rate of 10 μL/min, G-CSFR solution was injected, then 1 M ethanolamine (pH 8.5) was injected for 7 min to block the activated chip surface.
(§2) rHSA/mG-CSF and G-CSF standards were quantitatively diluted with a HBS-P buffer, and a kinetic test was conducted following a kinetic analysis Wizard in Biacore® 3000 control software. All the samples were injected at the flow rate of 30 μL/min, and the injection time of 3 min. After 5 min of disassociation, 50 mM NaOH, 1 M NaCL, and HBS-P buffer were respectively injected for 15 s and 60 s at a flow rate of 100 μL/min for regeneration. The obtained data was fitted using a 1:1 Langmuir binding model in Biacore 3000 analysis software, to obtain exact kinetic constants: […]

[3] = biological target: T1, G-CSF receptor G-CSFR (R & D company, …); remark: listed apart in the source
Description: as §1, §2

| Molecule | Kd [1] | Kd [2] | Kd [3] |
| --- | --- | --- | --- |
| rHSA/G-CSF mutant L19I (from UniProt P09919 31-207) (ligand) | 11.2 nM | – | – |
| recombinant human serum albumin-granulocyte-colony stimulating factor fusion protein (rHSA/G-CSF) (ligand) | 1.3 nM | – | – |
| B1 | – | 0.3 nM | 0.3 nM |

— patent US20130164251A1 (JIANGSU T MAB BIOPHARMA, published 2013)
